# Where “and” joins values, the source holds several entries; their conditions need not be identical. Identical values can stand only once.
# B1: Frataxin homolog, mitochondrial wild type, Q07540 (protein)
# chain: MIKRSLASLVRVSSVMGRRYMIAAAGGERARFCPAVTNKKNHTVNTFQKRFVESSTDGQVVPQEVLNLPLEKYHEEADDYLDHLLDSLEELSEAHPDCIPDVELSHGVMTLEIPAFGTYVINKQPPNKQIWLASPLSGPNRFDLLNGEWVSLRNGTKLTDILTEEVEKAISKSQ
# B2: Frataxin, mitochondrial wild type, Q16595 (protein)
# chain: MWTLGRRAVAGLLASPSPAQAQTLTRVPRPAELAPLCGRRGLRTDIDATCTPRRASSNQRGLNQIWNVKKQSVYLMNLRKSGTLGHPGSLDETTYERLAEETLDSLAEFFEDLADKPYTFEDYDVSFGSGVLTVKLGGDLGTYVINKQTPNKQIWLSSPSSGPKRYDWTGKNWVYSHDGVSLHELLAAELTKALKTKLDLSSLAYSGKDA
# B3: Iron-sulfur cluster assembly protein CyaY wild type, P27838 (protein)
# chain: MNDSEFHRLADQLWLTIEERLDDWDGDSDIDCEINGGVLTITFENGSKIIINRQEPLHQVWLATKQGGYHFDLKGDEWICDRSGETFWDLLEQAATQQAGETVSFR
# Conditions: Thermal, CD, whole UniProt chain shown
protein,measurement,setting,value
B1,Tm,"Saccharomyces cerevisiae (strain ATCC 204508 / S288c), pH 6, phosphate 20 mM, reversible: yes (>95%)",39.9 °C
same,Tm,"Saccharomyces cerevisiae (strain ATCC 204508 / S288c), pH 6, phosphate 150 mM, reversible: yes (>95%)",49 °C
same,Tm,"Saccharomyces cerevisiae (strain ATCC 204508 / S288c), pH 7, Hepes 10 mM, CaCl2 1 mM, reversible: yes (>95%)",51.1 °C
same,Tm,"Saccharomyces cerevisiae (strain ATCC 204508 / S288c), pH 7, Hepes 10 mM, CaCl2 150 mM, reversible: yes (>95%)",52.9 °C
same,Tm,"Saccharomyces cerevisiae (strain ATCC 204508 / S288c), pH 7, Hepes 10 mM, NaCl 150 mM, reversible: yes (>95%)",44.6 °C
same,Tm,"Saccharomyces cerevisiae (strain ATCC 204508 / S288c), pH 7, Hepes 10 mM, NaF 150 mM, reversible: yes (>95%)",44.8 °C
same,Tm,"Saccharomyces cerevisiae (strain ATCC 204508 / S288c), pH 7, phosphate 150 mM, reversible: yes (>95%)",48.6 °C and 53.6 °C
same,Tm,"Saccharomyces cerevisiae (strain ATCC 204508 / S288c), pH 7.2, Hepes 10 mM, NaF 150 mM, reversible: yes (>95%)",46.9 °C
same,Tm,"Saccharomyces cerevisiae (strain ATCC 204508 / S288c), pH 7.2, Hepes 10 mM, reversible: No",44.8 °C
same,Tm,"Saccharomyces cerevisiae (strain ATCC 204508 / S288c), pH 7.2, Hepes 10 mM, reversible: yes (47%)",42.3 °C
same,Tm,"Saccharomyces cerevisiae (strain ATCC 204508 / S288c), pH 7.2, Hepes 10 mM, reversible: yes (86%)",37.9 °C
same,Tm,"Saccharomyces cerevisiae (strain ATCC 204508 / S288c), pH 7.4, Hepes 10 mM, reversible: yes (>95%)",35.5 °C
same,Tm,"Saccharomyces cerevisiae (strain ATCC 204508 / S288c), pH 8, phosphate 150 mM, reversible: yes (>95%)",45.9 °C
B2,Tm,"Homo sapiens, pH 6, phosphate 150 mM, reversible: yes (>95%)",64.9 °C
same,Tm,"Homo sapiens, pH 7, Hepes 10 mM, CaCl2 1 mM, reversible: yes (>95%)",65.9 °C
same,Tm,"Homo sapiens, pH 7, Hepes 10 mM, NaCl 150 mM, reversible: yes (>95%)",65 °C
same,Tm,"Homo sapiens, pH 7, Hepes 10 mM, reversible: yes (88%)",68.6 °C
same,Tm,"Homo sapiens, pH 7, phosphate 20 mM, reversible: yes (>95%)",60 °C
same,Tm,"Homo sapiens, pH 7, phosphate 150 mM, reversible: yes (>95%)",65.7 °C
B3,Tm,"Escherichia coli (strain K12), pH 6, phosphate 20 mM, reversible: yes (>95%)",53.5 °C
same,Tm,"Escherichia coli (strain K12), pH 7, Hepes 10 mM, CaCl2 1 mM, reversible: yes (>95%)",62.7 °C
same,Tm,"Escherichia coli (strain K12), pH 7, Hepes 10 mM, reversible: yes (86%)",61.2 °C
same,Tm,"Escherichia coli (strain K12), pH 7, Hepes 10 mM, reversible: yes (>95%)",50.4 °C
same,Tm,"Escherichia coli (strain K12), pH 7, phosphate 20 mM, reversible: yes (>95%)",53.8 °C
same,Tm,"Escherichia coli (strain K12), pH 7.5, Hepes 10 mM, reversible: yes (86%)",60.5 °C
same,Tm,"Escherichia coli (strain K12), pH 7.5, Hepes 10 mM, reversible: yes (>95%)",54.8 °C and 58.3 °C
same,Tm,"Escherichia coli (strain K12), pH 8, phosphate 20 mM, reversible: yes (>95%)",53.8 °C
same,Tm,"Escherichia coli (strain K12), pH 8, phosphate 200 mM, reversible: yes (>95%)",45.8 °C

# Source: FireProtDB (doi:10.1021/bi036049+)
